B1: IMPA1 (parent)
chain: FIGEESVAAGEKSILTDNPTWIID
B2: SMOC2 (parent)
chain: PALETQPQGDEEDIASRYPTLWTE

Variants of: B1
Assay: protein stability index of a GFP-peptide fusion (GPS, HEK-293T) (PSI 1-6); higher = more stable
Conditions: c terminus: a fixed tail appended
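Note: lentivirally expressed fusions sorted by FACS into six bins by GFP to DsRed ratio, PSI derived from sequencing read proportions per bin multiplied by bin number.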

Protein stability index: each site, then its substitutions
L15: H 2.22 | T 2.33 | M 2.15 | R 2.17 | I 1.98 | C 2.3 | Q 2.28 | W 2.48 | V 2.52 | K 2.47 | Y 2.05 | E 2.61 | F 2.06 | A 2.33 | S 2.33 | G 2.77 | D 2.83 | N 2.78 | P 2.57
W21: S 4.41 | K 4.78 | M 4.69 | L 4.06 | G 4.71 | T 4.87 | Y 3.96 | C 4.23 | E 5.07 | H 4.71 | A 4.65 | N 4.57 | Q 4.65 | F 3.89 | P 4.67 | V 4.95 | I 3.92 | R 4.48 | D 4.85
G10: Y 1.85 | V 2.37 | D 2.48 | Q 2.67 | S 2 | T 2.19 | A 2.18 | K 2.01 | C 2.21 | I 2.43 | L 2.41 | F 1.85 | P 2.15 | H 1.87 | N 2.21 | W 1.83 | M 2.2 | E 2.8 | R 1.97
I22: S 2.35 | T 1.68 | G 3.11 | P 3.76 | E 4.71 | W 2.33 | N 3.12 | C 2.18 | F 2.01 | A 1.76 | H 3.37 | R 2.09 | Y 2.82 | L 2.67 | D 4.58 | K 2.48 | V 2.31 | Q 2.75 | M 2.57
A8: P 2.54 | S 2.3 | K 2.35 | R 1.62 | Q 2.29 | T 2.13 | N 2.23 | V 2.52 | I 1.58 | H 1.75 | L 2.08 | Y 2.39 | M 2.05 | W 1.74
I14: Q 2.01 | P 2.33 | H 2.44 | Y 1.91 | V 2.23 | R 1.99 | T 2.6 | K 2.54 | A 2.47 | G 2.38 | S 2.32 | D 2.34 | F 1.5 | E 2.31 | C 1.68 | L 1.78 | W 2.22 | N 2.23 | M 2.15
A9: W 1.87 | P 2.52 | I 1.81 | V 2.31 | G 2.09 | F 2.04 | D 2.98 | T 2.1 | L 1.78 | N 2.03 | R 1.5 | C 1.84 | Q 2.24 | E 2.42 | Y 2.59 | S 1.95 | M 1.75 | H 1.8 | K 1.96
D17: S 1.71 | F 2.25 | H 1.93 | V 1.55 | E 2.6 | R 1.68 | W 2.23 | Y 1.48 | P 2 | A 1.54 | K 1.46 | C 1.66 | M 2.13 | L 2.06 | N 1.85 | G 2.08 | Q 1.78 | I 2.7 | T 1.63
P19: R 1.96 | D 3.09 | I 2.32 | Q 2.92 | W 1.96 | S 2.38 | T 2.83 | C 1.76 | V 2.39 | F 2.35 | E 3.51 | K 2.2 | M 2.27 | A 2.41 | N 2.89 | H 3.02 | G 3.13 | Y 2.18 | L 1.97
D24: K 2.07 | F 2.2 | A 1.71 | V 1.86 | P 2.04 | M 2.05 | G 2.44 | R 1.59 | C 1.72 | Y 2.33 | I 1.16 | S 1.76 | W 2.06 | H 2.01 | E 2.03 | N 1.66 | Q 2.15 | L 2.05 | T 1.7
S13: F 1.97 | G 1.67 | Y 2 | K 2.16 | P 2.02 | D 2.44 | V 2.47 | Q 1.99 | W 2.21 | H 1.96 | I 1.99 | A 2.06 | R 2.4 | N 1.98 | M 1.73 | L 1.95 | T 1.89 | C 2.27 | E 2.32
T16: H 2.38 | M 2.38 | S 1.94 | G 2.11 | R 2.37 | W 1.72 | K 2.73 | C 3.16 | N 2.89 | F 1.66 | L 1.83 | A 2.35 | Q 2.19 | E 2.64 | I 1.41 | V 2.21 | P 1.26 | Y 1.64 | D 3.17
N18: E 3.48 | Y 2.62 | C 2.64 | W 2.1 | V 2.75 | G 2.71 | A 3.01 | K 2.73 | H 2.95 | T 2.84 | S 3.05 | F 2.46 | M 2.6 | R 2.31 | Q 2.86 | P 3.14 | L 2.88 | D 3.68 | I 2.71
T20: V 2.65 | L 2.05 | M 1.82 | F 2.29 | E 3.67 | W 2.03 | Q 3.09 | Y 1.7 | I 1.73 | P 2.25 | G 2.71 | D 3.32 | H 2.67 | N 3.1 | R 2.73 | K 3.4 | S 2.56 | C 2.2 | A 2.43
K12: N 1.89 | V 2.11 | D 2.27 | G 1.91 | F 1.56 | M 2.29 | Q 1.97 | P 2.45 | I 1.61 | E 2.21 | H 2.06 | Y 2.35 | C 1.93 | W 1.97 | R 2.57 | S 2.12 | L 2.25 | A 2.25 | T 2.32
E11: P 1.53 | Q 1.98 | C 1.98 | A 1.86 | W 1.37 | Y 1.93 | L 1.77 | H 1.7 | F 2.57 | T 2.3 | S 2.17 | N 2.04 | I 2.1 | D 2.3 | M 2.01 | G 1.96 | K 1.89 | V 1.92 | R 1.49
I23: L 3.6 | H 3.75 | N 3.55 | E 3.85 | A 1.84 | T 1.92 | K 3.64 | P 3.04 | S 2.27 | F 2.81 | G 2.99 | V 2.02 | R 3.9 | D 3.04 | W 2.59 | Y 3.45 | C 3.44 | Q 3.39 | M 2.52

Variants of: B2
Assay: as above
Conditions: c terminus: a fixed tail appended

Protein stability index of substitutions, site by site:
W22: Y 4.73 | A 5.45 | P 5.92
Q8: H 4.96
E24: P 5.1
L3: S 5.03
E11: K 3.92
S16: N 4.56 | T 4.39 | V 5.14
Y18: N 4.24
R17: F 3.82
A2: G 5.22 | Q 4.54
P7: E 4.67
T23: F 5.22
